The record followed here is the RNAGym collection of RNA variant scans (doi:10.1073/pnas.2313332121).

The chains are these.
B1: TPR t1 (parent)
chain: GACCAAUCUGCCCUCAGAGCUCGAGAACAUCUUCGGAUGCAGAGGAGGCAGGCUUCGGUGGCGCGAUAGCGCCAACGUCCUCAACCUCCAAUGCAUCCCACCACAUGAUGAUGCCUGAAGAGCCUUGGUUUUUUG

Variants of B1 are the subject of the data set. In words: polymerase ribozyme fitness, log enrichment relative to wild type (log ratio); higher = more active; in vitro selection for triplet polymerase activity. An outline of the steps:
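Fitness compares each genotype's enrichment to that of the wild type on a logarithmic scale, averaging replicates with inverse-variance weights. The logarithm is base 2. Enrichment came from Illumina sequencing of input and output libraries after one triplicate round of in vitro selection, which included frozen incubation at −7 °C, of PCR-built, transcribed mutant libraries of each subunit of a heterodimeric triplet polymerase ribozyme. Only genotypes with ≥10 input reads and ≥1 read per output were kept.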
Regarding C11U A16U U112A, the “polymerase ribozyme fitness (log ratio)” value is -0.434.

With G77C U125A, the “polymerase ribozyme fitness (log ratio)” value was -0.685.

Regarding G48U G61U G113A, the “polymerase ribozyme fitness (log ratio)” value is -1.24.

As for C12A U33A G48U A74C C94U, the “polymerase ribozyme fitness (log ratio)” value was -5.8.

Regarding A18U C49G A91G, the “polymerase ribozyme fitness (log ratio)” value was -3.84.

For U9G G10C C94G A121C C124G, the “polymerase ribozyme fitness (log ratio)” value stood at 1.48.

In the case of G44A C53G G63U C102A A105G G117C, the “polymerase ribozyme fitness (log ratio)” value was -7.23.

C8A U54G A111U U116G A119U U130G: the “polymerase ribozyme fitness (log ratio)” value is -7.62.

On to G48A A105C G120A A121C G122U U129A, for which the “polymerase ribozyme fitness (log ratio)” value is -3.55.

Regarding G36A C70U, the “polymerase ribozyme fitness (log ratio)” value is -1.06.

For the variant A18C G93C, the “polymerase ribozyme fitness (log ratio)” value is -3.24.

With A90C G120U, the “polymerase ribozyme fitness (log ratio)” value is -1.31.

As to G39U G60C, the “polymerase ribozyme fitness (log ratio)” value was -0.892.

As to G61C U112A, the “polymerase ribozyme fitness (log ratio)” value was -0.897.

For C20G C89U U109G U132C, the “polymerase ribozyme fitness (log ratio)” value was -3.87.

Regarding C101G C115U, the “polymerase ribozyme fitness (log ratio)” value was -3.55.

Consider C8A C70A, for which the “polymerase ribozyme fitness (log ratio)” value was -0.98.

As to C13G A74C, the “polymerase ribozyme fitness (log ratio)” value was -2.12.

On to C11G C12A C49U C85A A91C, for which the “polymerase ribozyme fitness (log ratio)” value is -2.76.

Consider C12A C94U, for which the “polymerase ribozyme fitness (log ratio)” value was -0.961.

Regarding C28G C40U G57U G63C, the “polymerase ribozyme fitness (log ratio)” value was -4.66.

Regarding U21C G61C C85A A95U, the “polymerase ribozyme fitness (log ratio)” value was -4.53.

As to C12A C70A C85G U116C, the “polymerase ribozyme fitness (log ratio)” value is -4.83.

In the case of U38C G71C C82A A83U A90G, the “polymerase ribozyme fitness (log ratio)” value was -2.39.

For the variant C12A C102U C115A, the “polymerase ribozyme fitness (log ratio)” value is -4.21.

With U21A A50C, the “polymerase ribozyme fitness (log ratio)” value is -0.532.

Consider A6U C11A C12U A37G G61A, for which the “polymerase ribozyme fitness (log ratio)” value was -1.24.

Take G42U C72U G93U A118G: the “polymerase ribozyme fitness (log ratio)” value was -4.06.

C12A C28U G60A G122A U133G: the “polymerase ribozyme fitness (log ratio)” value is -2.67.

As for A16G C40A C86U A90U A91C U106A U112G, the “polymerase ribozyme fitness (log ratio)” value was -4.19.

For C13A A16U G120C, the “polymerase ribozyme fitness (log ratio)” value is -0.322.

For the variant C56U A95G, the “polymerase ribozyme fitness (log ratio)” value is 0.263.

Turning to G45A C73A U133G, the “polymerase ribozyme fitness (log ratio)” value is -0.489.

In the case of U14C A16U C88U C101A U129G, the “polymerase ribozyme fitness (log ratio)” value was -5.73.

For C40A A43C G120C U130A, the “polymerase ribozyme fitness (log ratio)” value is -2.63.

Consider C86A A95G, for which the “polymerase ribozyme fitness (log ratio)” value is -0.915.

Take G10A G57U A90G U126A: the “polymerase ribozyme fitness (log ratio)” value is -1.18.

Take C12U G39A C56A: the “polymerase ribozyme fitness (log ratio)” value is -0.34.

As for A6C G35U A83U C98G A121U, the “polymerase ribozyme fitness (log ratio)” value was -4.12.

As for C13U C56U, the “polymerase ribozyme fitness (log ratio)” value is 0.718.

Consider A43C G61C U112A, for which the “polymerase ribozyme fitness (log ratio)” value is -5.07.

As to U55G C62A C88G, the “polymerase ribozyme fitness (log ratio)” value was -2.24.

Consider G63C A90U, for which the “polymerase ribozyme fitness (log ratio)” value was -2.23.

As for G39C C89U C115G C123A, the “polymerase ribozyme fitness (log ratio)” value is -4.39.

Turning to G48C C56U C85U U126G, the “polymerase ribozyme fitness (log ratio)” value was -2.57.

Take U14C U54G C62U: the “polymerase ribozyme fitness (log ratio)” value was -1.69.

In the case of G17U G61C, the “polymerase ribozyme fitness (log ratio)” value was -3.76.

With C20G, the “polymerase ribozyme fitness (log ratio)” value was -3.76.

As for A43C G71U C80U G110A G113U, the “polymerase ribozyme fitness (log ratio)” value is -7.29.

Turning to C11A G71U, the “polymerase ribozyme fitness (log ratio)” value was -1.08.

Turning to C12G C28U G36U G60A A83C C97U, the “polymerase ribozyme fitness (log ratio)” value is -3.31.

Consider C49U C53U C97U, for which the “polymerase ribozyme fitness (log ratio)” value is -1.14.

For C12A C64G C98G A103U A119G, the “polymerase ribozyme fitness (log ratio)” value was -6.93.

For the variant C22G C56G C86U C124U, the “polymerase ribozyme fitness (log ratio)” value was -3.03.

In the case of C72A C82U, the “polymerase ribozyme fitness (log ratio)” value is 0.305.

G93A A100G U112C U131A: the “polymerase ribozyme fitness (log ratio)” value is -2.69.

With C12A U55G C72U U92G, the “polymerase ribozyme fitness (log ratio)” value is -2.88.

For the variant C8U G65A, the “polymerase ribozyme fitness (log ratio)” value is -4.53.

As to U14G C80U C89G, the “polymerase ribozyme fitness (log ratio)” value was -4.89.

With C56A C76A G120U, the “polymerase ribozyme fitness (log ratio)” value was -1.15.

On to G52U G63A C101G C114G, for which the “polymerase ribozyme fitness (log ratio)” value is -6.25.

As to C40U C72G U106A C123G U126A U131A, the “polymerase ribozyme fitness (log ratio)” value was -1.25.

As for C13A G60U G69U, the “polymerase ribozyme fitness (log ratio)” value is -4.92.

Take C15U A27C C85A G117C C124G G128A U129G: the “polymerase ribozyme fitness (log ratio)” value is -6.66.

With G25A C49A G57A C89U C97G C115G, the “polymerase ribozyme fitness (log ratio)” value is -6.47.

C56U C98A: the “polymerase ribozyme fitness (log ratio)” value was -5.17.

As to C22U G45A A83C, the “polymerase ribozyme fitness (log ratio)” value was -5.99.

C88A C94A G117C: the “polymerase ribozyme fitness (log ratio)” value is -5.02.

Turning to G71U C80A, the “polymerase ribozyme fitness (log ratio)” value is -5.28.

Consider G122U C124G U130A, for which the “polymerase ribozyme fitness (log ratio)” value stood at 0.942.

Take A41C C82U: the “polymerase ribozyme fitness (log ratio)” value was -1.12.

For C62A G117C, the “polymerase ribozyme fitness (log ratio)” value is -4.72.

Regarding U14A G19U U32G U81G A100G G120C, the “polymerase ribozyme fitness (log ratio)” value is -7.12.

Turning to G10A U129A, the “polymerase ribozyme fitness (log ratio)” value is -1.14.

For A2U C8U G69U C82G C114U, the “polymerase ribozyme fitness (log ratio)” value is -2.12.

Regarding G44U C123A, the “polymerase ribozyme fitness (log ratio)” value was 0.184.

As for C11G C53G U96G A105C U112G, the “polymerase ribozyme fitness (log ratio)” value was -5.28.

For the variant G77U C82U G107A U112C, the “polymerase ribozyme fitness (log ratio)” value was -5.86.

C40A C72A A100C U132C: the “polymerase ribozyme fitness (log ratio)” value is -2.7.

As to C82U U96G G127U, the “polymerase ribozyme fitness (log ratio)” value was -1.83.

For C40U G45U G48U C82G A84G G120A, the “polymerase ribozyme fitness (log ratio)” value is -2.88.

As for U9A C99A, the “polymerase ribozyme fitness (log ratio)” value was -6.7.

In the case of U87A A119U G128A U131G, the “polymerase ribozyme fitness (log ratio)” value was -1.07.

In the case of A91C G127C, the “polymerase ribozyme fitness (log ratio)” value was -2.93.
